Measurements: US20230365667A1 (Merck Sharp & Dohme, published 2023)
Residue numbers refer to the chain shown, from its start.

B1: vhhLib05-21 (VHH)
VHH: EVQLLESGGGLVQPGGSLRLSCAASGFTFSNYAMSWVRQAPGKQREWVSVISGNGSSTYYADSVKGRFTISRDNSKNTLYLQMNSLRAEDTAVYYCARLVQLPWVPISAFDVWGQGTLVTVSS
notes: The entry as printed includes a doubled TLVTVSS and HHHHHH; also called 16BHK
B2: vhhLib01-34 (VHH)
VHH: QVQLVESGGGLVQPGGSLRLSCAASGSIFSVNRMGWYRQAPGKQRELVAAIISGGATNYADSVKGRFTISRDNAKNTVYLQMNSLKPEDTAVYYCARRPAPNGRYHSWYAFDYWGQGTLVTVSS
notes: The entry as printed includes HHHHHH
B3: vhhLib05-33 (VHH)
VHH: EVQLLESGGGLVQPGGSLRLSCAASGFTFSSYAMSWVRQAPGKQREWVSAISGSGGSTYYADSVKGRFTISRDNSKNTLYLQMNSLRAEDTAVYYCARLQGVQSDEVYYNYFDVWGQGTLVTVSS
notes: The entry as printed includes a doubled TLVTVSS and HHHHHH; also called vhbLib05-33
B4: vhhLib05-28 (VHH)
VHH: B3 VHH with S25A, Q100S, G101H, V102N, Q103S, S104Q, D105G, E106T, Y108V, V114I
notes: The entry as printed includes a doubled TLVTVSS and HHHHHH
B5: vhhLib05-78 (VHH)
VHH: B3 VHH with S35T, Q100A, G101T, V102H, Q103V, S104D, D105N, E106G, V107L, Y108G
notes: as for B4
B6: vhhLib02-37 (VHH)
VHH: EVQLVESGGGLVQPGGSLRLSCAASGFTFSDYVMSWYRQAPGKQRELVSAIISGEDTYYADSVKGRFTISRDNSKNTLYLQMNSLRAEDTAVYYCARYVHKSTWYYFDHWGQGTLVTVSS
notes: The entry as printed includes HHHHHH; also called vhbLib02-37
B7: vhhLib02-93 (VHH)
VHH: EVQLVESGGGLVQPGGSLRLSCAASGFTFSDYHMSWYRQAPGKQREPVSVINSGGYTYYADSVKGRFTISRDNSKNTLYLQMNSLRAEDTAVYYCARAQAAHYLYGYFDIWGQGTLVTVSS
notes: as for B2
B8: vhhLib01-49 (VHH)
VHH: QVQLVESGGGLVQPGGSLRLSCAASGSIFSHNTMGWYRQAPGKQRELVAAINSGGSTNYADSVKGRFTISRDNAKNTVYLQMNSLKPEDTAVYYCARYIQTYTWGYFDYWGQGTLVTVSS
notes: as for B2
B9: vhhLib02-53 (VHH)
VHH: EVQLVESGGGLVQPGGSLRLSCAASGFTFSRYLMSWYRQAPGKQRELVGAIASGGVTYYADSVKGRFTISRDNSKNTLYLQMNSLRAEDTAVYYCARGNPSERLYYYFDYWGQGTLVTVSS
notes: The entry as printed includes HHHHHH; also called 06BHK
B10: vhhLib05-25 (VHH)
VHH: EVQLLESGGGLVQPGGSLRLSCAASGFTFSSYAMSWVRQAPGKQREWVSAISGSGGSTYYADSVKGRFTISRDNSKNTLYLQMNSLRAEDTAVYYCARHRQADGITYFDIWGQGTLVTVSS
notes: as for B4
B11: vhhLib05-14 (VHH)
VHH: B10 VHH with H99L, R100S, Q101I, A102V, G104V, I105V, Y107V, I110V
notes: as for B4
B12: vhhLib05-5 (VHH)
VHH: B10 VHH with H99L, R100D, Q101Y, A102T, T106N, I110Y
notes: as for B4
B13: vhhLib01-75 (VHH)
VHH: QVQLVESGGGLVQPGGSLRLSCAASGSIFSSNRMGWYRQAPGKQRELVAAIFSGGHTNYADSVKGRFTISRDNAKNTVYLQMNSLKPEDTAVYYCARPVDWSGPFDIWGQGTLVTVSS
notes: as for B2
B14: vhhLib01-3 (VHH)
VHH: QVQLVESGGGLVQPGGSLRLSCAASGSIFSFNLMGWYRQAPGKQRELVAAINSGGSTNYADSVKGRFTISRDNAKNTVYLQMNSLKPEDTAVYYCARDYTVYVSYYDGRFDYWGQGTLVTVSS
notes: as for B2
B15: vhhLib02-64 (VHH)
VHH: EVQLVESGGGLVQPGGSLRLSCAASGFTFSGYFMSWYRQAPGKQRELVSVINSGGSTYYADSVKGRFTISRDNSKNTLYLQMNSLRAEDTAVYYCARGRVATGGGYGFVHYFDVWGQGTLVTVSS
notes: as for B2
B16: vhhLib02-91 (VHH)
VHH: EVQLVESGGGLVQPGGSLRLSCAASGFTVSDYHMSWYRQAPGKQRELVSVILSGGRTYYADSVKGRFTISRDNSKNTLYLQMNSLRAEDTAVYYCARADAIFPWFDVWGQGTLVTVSS
notes: The entry as printed includes HHHHHH; also called 09BHK
B17: vhhLib01-48 (VHH)
VHH: QVQLVESGGGLVQPGGSLRLSCAASGSIFSANIMGWYRQAPGKQRELVAAIVSGGYTNYADSVKGRFTISRDNAKNTVYLQMNSLKPEDTAVYYCARDQDAFDHVGQYFDHWGQGTLVTVSS
notes: as for B2
B18: vhhLib01-86 (VHH)
VHH: QVQLVESGGGLVQPGGSLRLSCAASGSIFSANHMGWYRQAPGKQRELVAAILSGGVTNYADSVKGRFTISRDNAKNTVYLQMNSLKPEDTAVYYCARGQVDTKYGYYYFDSWGQGTLVTVSS
notes: The entry as printed includes a doubled TLVTVSS and HHHHHH; also called vhbLib01-86
B19: vhhLib01-2 (VHH)
VHH: QVQLVESGGGLVQPGGSLRLSCAASGSIFSANHMGWYRQAPGKQRELVAAISSGGLTNYADSVKGRFTISRDNAKNTVYLQMNSLKPEDTAVYYCARHQTKIYNLHYYYFDYWGQGTLVTVSS
notes: as for B2
B20: vhhLib05-8 (VHH)
VHH: EVQLLESGGGLVQPGGSLRLSCAASGFTFSSYAMSWVRQAPGKQREWVSAISGSGGRTYYADSVKGRFTISRDNSKNTLYLQMNSLRAEDTAVYYCARHSIPVDGIVAFDHWGQGTLVTVSS
notes: The entry as printed includes a doubled TLVTVSS and HHHHHH; also called 13BHK
B21: vhhLib05-10 (VHH)
VHH: B20 VHH with R57S, H99V, S100V, I101K, P102V, V103D, G105I, I106V, V107H, H111I
notes: as for B4
B22: vhhLib01-58 (VHH)
VHH: QVQLVESGGGLVQPGGSLRLSCAASGSIFSPNHMGWYRQAPGKQRELVAAIYSGGTTNYADSVKGRFTISRDNAKNTVYLQMNSLKPEDTAVYYCARRTFLRGWSGYLPWFDVWGQGTLVTVSS
notes: as for B2
B23: vhhLib02-21 (VHH)
VHH: EVQLVESGGGLVQPGGSLRLSCAASGFTFSLYTMSWYRQAPGKQRELVSAISSGGSTYYADSVKGRFTISRDNSKNTLYLQMNSLRAEDTAVYYCARYDYSWWYFDLWGQGTLVTVSS
notes: as for B2
B24: vhhLib05-49 (VHH)
VHH: EVQLLESGGGLVQPGGSLRLSCAASGFTFSSYAMSWVRQAPGKQREWVSAISGSGGSTYYADSVKGRFTISRDNSKNTLYLQMNSLRAEDTAVYYCARDTNQPYHGRYVYTYDFDVWGQGTLVTVSS
notes: also called 20BHK
B25: vhhLib02-26 (VHH)
VHH: EVQLVESGGGLVQPGGSLRLSCAASGFTFSAYIMSWYRQAPGKQRELVGAIVSGGLTYYADSVKGRFTISRDNSKNTLYLQMNSLRAEDTAVYYCARHWRWYDSNLVFDLWGQGTLVTVSS
notes: as for B2
B26: vhhLib05-83 (VHH)
VHH: EVQLLESGGGLVQPGGSLRLSCAASGFTFSNYAMSWVRQAPGKQREWVSAISGSGGSTYYADSVKGRFTISRDNSKNTLYLQMNSLRAEDTAVYYCARLFLQQADGLYYYYAFDPWGQGTPVTVSS
notes: The entry as printed includes a doubled TLVTVSS-like stretch and HHHHHH

biological target: T1, Abeta peptide (40-amino acid Abeta peptide, SEQ ID NO: 1), biotinylated (human, N-terminal biotin or C-terminal lysine-linked biotin, separated from the peptide by a PEG6 linker); experiment: BLI (Octet HTX), biotinylated Abeta on streptavidin sensors, 1 uM VHH, 1:1 fit
T1 construct: Synthesized by Genscript; also called amyloid beta; test peptide
T1 sequence (peptide, as listed by the source): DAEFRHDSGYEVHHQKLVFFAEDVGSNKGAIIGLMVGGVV
Experimental: Binding affinity was measured using Biolayer Interferometry (BLI) with a ForteBio Octet HTX instrument. Biotinylated antigen was loaded onto streptavidin biosensors at a concentration of 100 nM in kinetics buffer (PBS+1% BSA). The binding experiments were performed with the following steps: 1) baseline in kinetics buffer for 30 seconds, 2) loading of antigen for 180 seconds, to achieve a loading response of at least 1 nm, 3) baseline for 60 seconds, 4) association of 1 μM VHH for 300 seconds, and 5) dissociation into kinetics buffer for 180 seconds. Curves were fit to a 1:1 binding model using the ForteBio software. A negative control was included in all plates, which was un-transfected mammalian cells subjected to the same purification process, to account for the effect of any carryover protein contaminants from cell culture.

| Kd | koff | kon | Binder |
| --- | --- | --- | --- |
| 104 nM | 0.00111 s⁻¹ | 10700 M⁻¹ s⁻¹ | B1 |
| 367 nM | 0.00268 s⁻¹ | 7320 M⁻¹ s⁻¹ | B2 |
| 633 nM | 0.00297 s⁻¹ | 4680 M⁻¹ s⁻¹ | B3 |
| 114 nM | 0.000725 s⁻¹ | 6370 M⁻¹ s⁻¹ | B4 |
| 214 nM | 0.00133 s⁻¹ | 6200 M⁻¹ s⁻¹ | B5 |
| 328 nM | 0.00105 s⁻¹ | 3210 M⁻¹ s⁻¹ | B6 |
| 469 nM | 0.00314 s⁻¹ | 6700 M⁻¹ s⁻¹ | B7 |
| 116 nM | 0.000734 s⁻¹ | 6320 M⁻¹ s⁻¹ | B8 |
| 42.6 nM | 0.000447 s⁻¹ | 10500 M⁻¹ s⁻¹ | B9 |
| 23.9 nM | 0.000337 s⁻¹ | 14100 M⁻¹ s⁻¹ | B10 |
| 39.9 nM | 0.000443 s⁻¹ | 11100 M⁻¹ s⁻¹ | B11 |
| 189 nM | 0.000882 s⁻¹ | 4660 M⁻¹ s⁻¹ | B12 |
| 185 nM | 0.00324 s⁻¹ | 17500 M⁻¹ s⁻¹ | B13 |
| 239 nM | 0.00353 s⁻¹ | 14800 M⁻¹ s⁻¹ | B14 |
| 210 nM | 0.0029 s⁻¹ | 13800 M⁻¹ s⁻¹ | B15 |
| 43.1 nM | 0.00046 s⁻¹ | 10700 M⁻¹ s⁻¹ | B16 |
| 153 nM | 0.00333 s⁻¹ | 21800 M⁻¹ s⁻¹ | B17 |
| 430 nM | 0.0033 s⁻¹ | 7670 M⁻¹ s⁻¹ | B18 |
| 212 nM | 0.00632 s⁻¹ | 29800 M⁻¹ s⁻¹ | B19 |
| 25.4 nM | 0.000269 s⁻¹ | 10600 M⁻¹ s⁻¹ | B20 |
| 176 nM | 0.00127 s⁻¹ | 7170 M⁻¹ s⁻¹ | B21 |
| 264 nM | 0.0045 s⁻¹ | 17000 M⁻¹ s⁻¹ | B22 |
| 244 nM | 0.000724 s⁻¹ | 2970 M⁻¹ s⁻¹ | B23 |
| 5.3 nM | 6.73e-05 s⁻¹ | 12600 M⁻¹ s⁻¹ | B24 |
| 249 nM | 0.0137 s⁻¹ | 55000 M⁻¹ s⁻¹ | B25 |
| 292 nM | 0.00112 s⁻¹ | 3830 M⁻¹ s⁻¹ | B26 |
